Experimental findings from patent publication US20110165081A1 are described below.

Assay [1] has as its target prostate specific membrane antigen (PSMA), full-length (human) (UniProt Q04609). Description: radiolabelled mAb bound to PSMA-expressing cells, average.
Assay [2] has the same target. Description: radiolabelled mAb bound to PSMA-3T3 cells (bracket: 3T3 control).
For assay [3] the target is unchanged. Briefly: radiolabelled mAb bound to PSMA-3T3 cells.
For assay [4] the target is unchanged. Briefly: cell-based or functional assay.

prostate specific membrane antigen (PSMA), full-length (human), sequence (Q04609 whole entry): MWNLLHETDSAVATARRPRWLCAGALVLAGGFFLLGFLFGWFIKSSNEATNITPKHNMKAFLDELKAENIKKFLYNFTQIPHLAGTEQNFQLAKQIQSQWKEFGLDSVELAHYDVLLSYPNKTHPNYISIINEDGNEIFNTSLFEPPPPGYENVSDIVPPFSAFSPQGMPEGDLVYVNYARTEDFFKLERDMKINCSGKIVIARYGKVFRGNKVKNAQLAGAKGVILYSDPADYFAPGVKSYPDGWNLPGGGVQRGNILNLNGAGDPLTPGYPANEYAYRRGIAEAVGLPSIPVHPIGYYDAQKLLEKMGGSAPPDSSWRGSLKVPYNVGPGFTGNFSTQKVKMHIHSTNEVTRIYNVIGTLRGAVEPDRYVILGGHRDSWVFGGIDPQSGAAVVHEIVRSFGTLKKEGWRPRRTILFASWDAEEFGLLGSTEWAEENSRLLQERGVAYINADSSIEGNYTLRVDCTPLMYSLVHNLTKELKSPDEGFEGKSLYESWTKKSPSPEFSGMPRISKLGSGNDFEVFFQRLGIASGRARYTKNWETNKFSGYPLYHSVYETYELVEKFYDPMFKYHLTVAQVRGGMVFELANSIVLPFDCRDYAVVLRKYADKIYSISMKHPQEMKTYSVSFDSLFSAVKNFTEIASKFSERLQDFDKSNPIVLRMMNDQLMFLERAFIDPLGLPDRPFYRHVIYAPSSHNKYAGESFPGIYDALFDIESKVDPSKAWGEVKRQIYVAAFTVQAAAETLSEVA

The substance “^111In radiolabeled CHX-A″-DTPA antibody mJ591” returned an Immunoreactivity (%), Average in assay [1] of 56.7%. Further, the Immunoreactivity (%) in assay [2] worked out at 54.9%; in assay [3] it was 58.5%.
Regarding mAb J591 (ATCC #HB-12126) (antibody), in assay [4], the LD50, immunotoxin cytotoxicity (Mab-Zap saporin secondary) on C4-2 cells is 88.2 pM and the LD50, immunotoxin cytotoxicity (Mab-Zap saporin secondary) on PSMA-3T3 cells was determined as 89 pM.
